From publication PMC1618809 (Molecular Microbiology, 2006)
Numbering of substitutions follows the chain as printed.

Columns and labels:
[1] = biological target: T1, PfTrx-Px2Mut1 (Asn62Tyr63 replaced by AspPhe) (Plasmodium falciparum) (UniProt Q8I5Q6)
T1 sequence: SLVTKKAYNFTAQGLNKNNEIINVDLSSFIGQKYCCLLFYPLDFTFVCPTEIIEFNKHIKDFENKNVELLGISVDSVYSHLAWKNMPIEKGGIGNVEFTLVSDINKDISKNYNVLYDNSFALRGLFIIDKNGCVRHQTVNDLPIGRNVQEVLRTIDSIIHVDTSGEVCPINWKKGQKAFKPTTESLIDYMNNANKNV

[2] = biological target: T2, PfTrx-Px2Mut2 (Phe139Ala140 replaced by ValSer) (Plasmodium falciparum) (UniProt Q8I5Q6)
T2 sequence: T1 sequence with D43N, F44Y, F120V, A121S

[3] = biological target: the molecule itself; experiment: AUC

B1: Plasmodium falciparum thioredoxin 1 (PfTrx1), cytosolic thioredoxin (natural protein)
chain: MVKIVTSQAEFDSIISQNELVIVDFFAEWCGPCKRIAPFYEECSKTYTKMVFIKVDVDEVSEVTEKENITSMPTFKVYKNGSSVDTLLGANDSALKQLIEKYAA
- KM^app of PfTrx-Px2Mut1 for Trx1; coupled peroxidase assay [1]: 86.2 µM
- KM^app of PfTrx-Px2Mut2 for Trx1; coupled peroxidase assay [2]: 78.8 µM

B2: Plasmodium falciparum mitochondrial peroxiredoxin (PfTrx-Px2), recombinant protein from construct pftrx-px2-2 lacking the first 19 amino acids (enzyme, UniProt Q8I5Q6 20-216, looked up)
chain: T1 sequence with D43N, F44Y
- stoichiometry N [3]: 10

B3: Plasmodium falciparum thioredoxin 2 (PfTrx2), construct PfTrx2-S3 lacking the first 47 amino acids (domain or fragment)
chain: MFKKVPRLQQNGSNIINGVNMKNTVIVLYFFAKWCQACTMQSTEMDKLQKYYGKRIYLLKVDLDKNESLARKFSVKSLPTIILLKNKTMLARKDHFVSSNDLIALIKKHL
- KM^app of PfTrx-Px2Mut1 for Trx2; coupled peroxidase assay [1]: 7.7 µM
- KM^app of PfTrx-Px2Mut2 for Trx2; coupled peroxidase assay [2]: 12.1 µM
